Data as given in PMC3925751.

Target: the model collagen surfaces
Assay: SPR

lubricin (PRG4), purified from human synovial fluid (natural protein)
adsorbed amount: 1 to 2 mg/m^2
